“Also recorded” adds a separate entry of the source. Where no end group is shown, it is not given here.
Assay: Treatment toxicity: body weight and drug-induced animal deaths in B16 melanoma-bearing mice
Assay type: in vivo, C57BL/6 mice
Details: for body weight effect in words (loss / difference vs vehicle group): throughout the course of the study
Protocol: The toxic effects of the dosing regimens were also monitored. […] Meanwhile 9H10 was given in two groups via i.p. on Day 3, 6 and 9. […] Tumor volume and body weight were measured every three days, and tumor weights were measured on Day 16 at the end of the study.
On Day 3, the animals were randomly assigned into nine different weight-matched and tumor-size-matched groups. Dosing was started on Day 3 using the regimen according to Table 2.
From Day 1 to Day 15, mortality and moribundity were checked twice daily, the body weights were recorded once every 3 days, and tumors were measured using a caliper once every 3 days. At the end of the study (Day 16), the animals were euthanized by CO2 asphyxiation, and the tumors were excised and weighed.
Toxicity of all treatment regimens was evaluated with the body weights of the study animals along with the drug-induced animal deaths. The inhibition of body weight was calculated using Excel according to the equation below:
PIBW(%)=100×(BW vehicle−BW drug treated)/BW vehicle
Inter-group comparison was performed in terms of tumor volume, tumor weight and body weight, using a student's t test. P values of less than 0.05 were considered to be statistically significant.

CNC(=O)c1cc(Oc2ccc(NC(=O)Nc3ccc(Cl)c(C(F)(F)F)c3)cc2)ccn1 [Sorafenib]
Body Weight (g) (Mean ± SD) (Day 0 (tumor implantation, before dosing)): 21.02 ± 0.834 g | Percent inhibition of body weight vs vehicle (PIBW) (Day 0): −0.9121% | Percent inhibition of body weight vs vehicle (PIBW) (Day 3): 0.0000% | Body Weight (g) (Mean ± SD) (Day 6): 20.74 ± 1.023 g | Percent inhibition of body weight vs vehicle (PIBW) (Day 6): −1.6667% | Body Weight (g) (Mean ± SD) (Day 9): 19.75 ± 1.307 g | Body weights on Day 9 (Day 9, animal F1): 18.60 g | Body weights on Day 9 (Day 9, animal F2): 18.40 g | Body weights on Day 9 (Day 9, animal F3): 18.40 g | Body weights on Day 9 (Day 9, animal F4): 18.60 g | Body weights on Day 9 (Day 9, animal F5): 19.80 g | Body weights on Day 9 (Day 9, animal M1): 20.80 g | Body weights on Day 9 (Day 9, animal M2): 22.10 g | Body weights on Day 9 (Day 9, animal M3): 20.40 g | Body weights on Day 9 (Day 9, animal M4): 21.10 g | Body weights on Day 9 (Day 9, animal M5): 19.30 g | Percent inhibition of body weight vs vehicle (PIBW) (Day 9): 3.2337% | Body Weight (g) (Mean ± SD) (Day 12): 20.09 ± 1.534 g | Body weights on Day 12 (Day 12, animal F1): 19.00 g | Body weights on Day 12 (Day 12, animal F2): 17.20 g | Body weights on Day 12 (Day 12, animal F3): 20.80 g | Body weights on Day 12 (Day 12, animal F4): 18.30 g | Body weights on Day 12 (Day 12, animal F5): 20.30 g | Body weights on Day 12 (Day 12, animal M1): 22.10 g | Body weights on Day 12 (Day 12, animal M2): 21.40 g | Body weights on Day 12 (Day 12, animal M3): 20.40 g | Body weights on Day 12 (Day 12, animal M4): 21.50 g | Body weights on Day 12 (Day 12, animal M5): 19.90 g | Percent inhibition of body weight vs vehicle (PIBW) (Day 12): 8.2229% | Percent inhibition of body weight vs vehicle (PIBW) (Day 12, listed as Sorafenib alone): 8.22% | Body Weight (g) (Mean ± SD) (Day 15): 21.41 ± 1.919 g | Body weights on Day 15 (Day 15, animal F1): 20.70 g | Body weights on Day 15 (Day 15, animal F2): 17.50 g | Body weights on Day 15 (Day 15, animal F3): 21.10 g | Body weights on Day 15 (Day 15, animal F4): 19.90 g | Body weights on Day 15 (Day 15, animal F5): 21.50 g | Body weights on Day 15 (Day 15, animal M1): 23.90 g | Body weights on Day 15 (Day 15, animal M2): 23.80 g | Body weights on Day 15 (Day 15, animal M3): 22.20 g | Body weights on Day 15 (Day 15, animal M4): 22.80 g | Body weights on Day 15 (Day 15, animal M5): 20.70 g | Percent inhibition of body weight vs vehicle (PIBW) (Day 15): 3.2972%

Thymosin Alpha-1 (Ac-SDAAVDTSSEITTKDLKEKKEVVEEAEN; ends and bridges not checked; UniProt P06454 2-29, looked up) [TA-1, 28 amino acid peptide, immunomodulator; test article (SciClone), 6 mg/kg s.c. daily]
Body weights on Day 0 (Day 0, animal F1): 21.40 g | Body weights on Day 0 (Day 0, animal F2): 19.20 g | Body weights on Day 0 (Day 0, animal F3): 21.10 g | Body weights on Day 0 (Day 0, animal F4): 20.20 g | Body weights on Day 0 (Day 0, animal F5): 19.00 g | Body weights on Day 0 (Day 0, animal M1): 21.60 g | Body weights on Day 0 (Day 0, animal M2): 22.50 g | Body weights on Day 0 (Day 0, animal M3): 22.10 g | Body weights on Day 0 (Day 0, animal M4): 21.70 g | Body weights on Day 0 (Day 0, animal M5): 19.80 g | Percent inhibition of body weight vs vehicle (PIBW) (Day 0): −0.1440% | Body Weight (g) (Mean ± SD) (Day 3 (start of dosing)): 20.44 ± 1.460 g | Body weights on Day 3 (Day 3, animal F3): 20.40 g | Body weights on Day 3 (Day 3, animal F4): 20.30 g | Body weights on Day 3 (Day 3, animal F5): 17.20 g | Body weights on Day 3 (Day 3, animal M1): 21.40 g | Body weights on Day 3 (Day 3, animal M2): 22.20 g | Body weights on Day 3 (Day 3, animal M3): 21.60 g | Body weights on Day 3 (Day 3, animal M4): 21.50 g | Percent inhibition of body weight vs vehicle (PIBW) (Day 3): 2.1073% | Body Weight (g) (Mean ± SD) (Day 6): 21.38 ± 1.220 g | Body weights on Day 6 (Day 6, animal F1): 22.10 g | Body weights on Day 6 (Day 6, animal F2): 20.10 g | Body weights on Day 6 (Day 6, animal F3): 21.80 g | Body weights on Day 6 (Day 6, animal F4): 20.80 g | Body weights on Day 6 (Day 6, animal F5): 20.20 g | Body weights on Day 6 (Day 6, animal M1): 22.00 g | Body weights on Day 6 (Day 6, animal M2): 22.90 g | Body weights on Day 6 (Day 6, animal M3): 22.30 g | Body weights on Day 6 (Day 6, animal M4): 22.40 g | Body weights on Day 6 (Day 6, animal M5): 19.20 g | Percent inhibition of body weight vs vehicle (PIBW) (Day 6): −4.8039% | Body weights on Day 9 (Day 9, animal F1): 21.50 g | Body weights on Day 9 (Day 9, animal F2): 19.70 g | Body weights on Day 9 (Day 9, animal F3): 20.30 g | Body weights on Day 9 (Day 9, animal F4): 20.40 g | Body weights on Day 9 (Day 9, animal F5): 19.20 g | Body weights on Day 9 (Day 9, animal M1): 21.50 g | Body weights on Day 9 (Day 9, animal M2): 22.40 g | Body weights on Day 9 (Day 9, animal M3): 22.00 g | Body weights on Day 9 (Day 9, animal M4): 21.90 g | Body weights on Day 9 (Day 9, animal M5): 19.90 g | Percent inhibition of body weight vs vehicle (PIBW) (Day 9): −2.3028% | Body Weight (g) (Mean ± SD) (Day 12): 21.24 ± 1.623 g | Body weights on Day 12 (Day 12, animal F1): 21.90 g | Body weights on Day 12 (Day 12, animal F2): 19.10 g | Body weights on Day 12 (Day 12, animal F3): 20.70 g | Body weights on Day 12 (Day 12, animal F5): 18.90 g | Body weights on Day 12 (Day 12, animal M1): 22.60 g | Body weights on Day 12 (Day 12, animal M2): 23.50 g | Body weights on Day 12 (Day 12, animal M3): 22.70 g | Body weights on Day 12 (Day 12, animal M4): 22.40 g | Body weights on Day 12 (Day 12, animal M5): 19.70 g | Percent inhibition of body weight vs vehicle (PIBW) (Day 12): 2.9694% | Body Weight (g) (Mean ± SD) (Day 15): 22.74 ± 1.459 g | Body weights on Day 15 (Day 15, animal F1): 24.30 g | Body weights on Day 15 (Day 15, animal F2): 20.70 g | Body weights on Day 15 (Day 15, animal F3): 22.30 g | Body weights on Day 15 (Day 15, animal F4): 21.80 g | Body weights on Day 15 (Day 15, animal F5): 21.30 g | Body weights on Day 15 (Day 15, animal M1): 22.60 g | Body weights on Day 15 (Day 15, animal M2): 24.50 g | Body weights on Day 15 (Day 15, animal M3): 24.70 g | Body weights on Day 15 (Day 15, animal M4): 23.70 g | Body weights on Day 15 (Day 15, animal M5): 21.50 g | Percent inhibition of body weight vs vehicle (PIBW) (Day 15): −2.7100% | body weight effect in words (loss / difference vs vehicle group): did no cause any statistically significant loss of body weights; also recorded: did not cause any loss of body weights | body weight effect in words (loss / difference vs vehicle group) (listed as TA-1 alone): no statistical differences in body weights

Reference: patent US20100267637A1, “TREATMENT OF MELANOMA WITH ALPHA THYMOSIN PEPTIDES IN COMBINATION WITH A KINASE INHIBITOR” (SciClone Pharmaceuticals, Inc., priority 2007, published 2010)
